Test system: E. coli BL21 (DE3)+kan^R
Assay type: cell-based, Escherichia coli
Conditions: OD600 growth curve, 37° C., 96-well plates, duplicates averaged
Protocol: Growth was determined by measurement of the optical density at 600 nm (OD600) for 18 hours in 96-well plates at 37° C. The profile of the OD600 curves corresponds to the bacterial growth. […] Each sample was prepared in duplicate and the results averaged.
Antimicrobial activity was investigated in a 96-well plate by incubating E. coli BL21 (DE3)+kan^R bacteria either with microcin S alone or with microcin S and an antibiotic at 37° C. for 18 h.
To investigate whether microcin S in combination with antibiotics can likewise achieve synergistic effects on sensitive bacteria, growth profiles of the microcin S-sensitive indicator strain Escherichia coli BL21 (DE3) provided with a kanamycin resistance gene are recorded photometrically in a microtitre plate of 96-well format. […] After loading with the individual samples, the microtitre plate is incubated directly in a photometer (Epoch2 microplate reader from Biotek, USA) at 37° C. and 200 rpm (double-orbital, ∞) for 15 h. The optical density at 600 nm wavelength (OD600) is measured simultaneously for all wells at regular intervals. The graphic evaluation of the recorded measurement points is done subsequently with the aid of Microsoft Excel (Microsoft Corporation, USA). […]

B1: Microcin S: Antimicrobial polypeptide of E. coli G3/10 (SEQ ID NO: 7), prepared in a cell-free E. coli based in vitro expression system (protein, listed as Escherichia coli)
chain: NANSNYEGGGSRSRNTGARNSLGRNAPTHIYSDPSTVKCANAVFSGMVGGAIKGGPVGMTRGTIGGAVIGQCLSGGGNGNGGGNRAGSSNCSGSNVGGTCSR
Time of incubation after which the antibacterial effect is observed (collapse of bacterial growth): 5 h

Source: patent publication US20220031803A1, “ANTIBACTERIAL COMPOSITION COMPRISING MICROCIN S AND ANTIBIOTIC” (priority 2017, published 2022)
